Laboratory results published in US20080020964A1, “Test System for the Discovery of Substances for the Promotion of Neuraxonal Growth” (priority 2003, published 2008).

Columns and labels:
PC12 cells [1] = assay: Neurite growth in PC12 cells transiently transfected with Smn or hnRNP-R and -Q; assay type: cell-based, rat; settings: transient overexpression, differentiation with 50 ng/ml NGF for three days
Procedure: Rat pheochromocytoma cells (PC12) were cultivated in DMEM (Invitrogen, Carlsbad, Calif., USA)+10% horse serum+5% fetal calf serum+antibiotics. Before the transfection, the cells were plated out in a high density in 24-well culture dishes and transfected with 1 μg plasmid DNA (Lipofectamine 2000; Invitrogen, Carlsbad, Calif., USA). For this purpose, expression plasmids were used, into which wildtype forms marked with epitope tags (HA tag of FLAG tag) or mutated versions of Smn, hnRNP-R or hnRNP-Q have been cloned. On the day after the transfection, the cells were plated out in 35 mm culture dishes on glass plates coated with poly-DL-or nithine in a density of 1,000 cells/cm^2. As a differentiation medium, DMEM+2% horse serum and 1% fetal calf serum+50 ng/ml NGF+antibiotics were used. After three days, the cells were fixed and stained. The PC12 cells were fixed with 4% paraformaldehyde (PFA) in buffered common salt solution (PBS). […] After washing again with TBS-T, the cells were embedded in Mowiol and evaluated at the fluorescence microscope or the confocal microscope as mentioned above.

PC12 cells [2] = assay: Neurite growth in Smn or hnRNP-R or -Q overexpressing stable PC12 cell lines; assay type: cell-based, rat; settings: differentiated seven days
Procedure: For preparing stable cell lines, PC12 cells were cultivated as described above, and transfected with expression vectors for the wildtype form or mutated Smn, hnRNP-R or hnRNP-Q. Thereafter, the cells were selected in a small cell density with the antibiotic G418 with regard to their neomycin resistance. Individual clones were tested by Western blot analysis for their stable expression of the constructs to be expressed. For measuring the neurite length, the cells were plated out as described above on coated glass plates, differentiated by the addition of differentiation medium and fixed, stained after seven days, and the neurite growth was quantified as described above.

[3] = test system: 3′ untranslated region of β-actin mRNA; assay: Binding of radioactively marked β-actin mRNA to immunoprecipitated HA-marked hnRNP-R (filter, PSL); settings: HA-marked protein from transfected HEK 293 cells, 32P-marked RNA, 30 minutes at room temperature
Procedure: The untranslated 3′ regions of β-actin from the stop codon to the poly-A sequence or the so-called zipcode region (Kislauskis et al., 1994) were amplified by RT-PCR and cloned into a plasmid with the binding site for the T7 RNA polymerase (pTZ19). Optionally, a poly-A tail of 30 nucleotides was added. (Used primers:
actinUTRfwd […], actinUTRpolyAfullrev, ATGAGAATTC-T(30)-[…], actinUTRpolyAziprev, ATGA-GAATTC-T(30)-[…], actinUTRfullrev, […]). The plasmids were linearized by digestion with EcoRI at the 3′ end, and were purified. […]
A cell line from human embryonic kidney cells (HEK 293) was transfected with expression constructs marked by HA epitope for the wildtype forms or mutated versions of Smn or hnRNP-R. After 48 hours, the cells were lysated in lysis buffer (25 mM Tris-HCl pH=8.0, 137 mM NaCl, 2 mM EGTA, 2 mM EDTA, 10% glycerol, 1% Triton X-100, 0.05% β-mercaptoethanol and protease inhibitors; Roche, Bale, Switzerland), and the HA-marked proteins were purifies by immunoprecipitation with anti-HA agarose (HA.11, Covance, Denver, Pa., USA). […] These filters were exposed with phosphoimager plates (BAS-2500, Photo Film Europe GmbH, Duesseldorf, Germany), and the bound radioactivity was measured as photo-stimulating luminescence (PSL) by means of the AIDA software package (Raytest, Straubenhardt, Germany).

PC12 cell lines = assay: β-actin content in neurites and growth cones of cultivated PC12 cell lines (immunostaining); assay type: cell-based, rat; settings: stable PC12 cell lines, anti-actin / anti-β-actin antibodies
Procedure: The cultivation of PC12 cell lines and the fixation, staining and evaluation was performed as described above. As antibodies, monoclonal anti-Smn antibodies (BD Biosciences, Lexington, Ky., USA, 1:500), rabbit anti-hnRNP-R antibodies (Rossoll et al., 2002; 1:1,000), anti-actin (Roche, Bale, Switzerland, 1:200) and β-actin (Abcam, Cambridge, UK; 1:1,000) were used. Since in neurites preferably β-actin is localized, the results are similar for anti-actin and specifically anti-β-actin.

Row | Molecule | effect on neurite growth (PC12 cells [1]) | neurite length versus control cell lines (untransfected or empty plasmid) (PC12 cells [2]) | binding to the 3′ untranslated region of β-actin mRNA [3] | β-actin staining in the growth zones of the neurites (PC12 cell lines)
1 | SmnY272C: Smn with a point mutation, no interaction with hnRNP-R, also found in SMA patients | no stimulating effect |  |  | 
2 | hnRNP-Q: heterogeneous nuclear ribonucleic protein Q, epitope-tagged wildtype form overexpressed from an expression plasmid (protein, UniProt O60506 2-623, looked up, epitope tag) Heterogeneous nuclear …: ATEHVNGNGTEEPMDTTSAVIHSENFQTLLDAGLPQKVAEKLDEIYVAGLVAHSDLDERAIEALKEFNEDGALAVLQQFKDSDLSHVQNKSAFLCGVMKTYRQREKQGTKVADSSKGPDEAKIKALLERTGYTLDVTTGQRKYGGPPPDSVYSGQQPSVGTEIFVGKIPRDLFEDELVPLFEKAGPIWDLRLMMDPLTGLNRGYAFVTFCTKEAAQEAVKLYNNHEIRSGKHIGVCISVANNRLFVGSIPKSKTKEQILEEFSKVTEGLTDVILYHQPDDKKKNRGFCFLEYEDHKTAAQARRRLMSGKVKVWGNVGTVEWADPIEDPDPEVMAKVKVLFVRNLANTVTEEILEKAFSQFGKLERVKKLKDYAFIHFDERDGAVKAMEEMNGKDLEGENIEIVFAKPPDQKRKERKAQRQAAKNQMYDDYYYYGPPHMPPPTRGRGRGGRGGYGYPPDYYGYEDYYDYYGYDYHNYRGGYEDPYYGYEDFQVGARGRGGRGARGAAPSRGRGAAPPRGRAGYSQRGGPGSARGVRGARGGAQQQRGRGVRGARGGRGGNVGGKRKADGYNQPDSKRRQTNNQNWGSQPIAQQPLQGGDHSGNYGYKSENQEFYQDTFGQQWK |  | three times longer neurites |  | 
3 | hnRNP-R: heterogeneous nuclear ribonucleic protein R, epitope-tagged wildtype form overexpressed from an expression plasmid (protein, UniProt O43390 2-633, looked up, epitope tag) Heterogeneous nuclear …: ANQVNGNAVQLKEEEEPMDTSSVTHTEHYKTLIEAGLPQKVAERLDEIFQTGLVAYVDLDERAIDALREFNEEGALSVLQQFKESDLSHVQNKSAFLCGVMKTYRQREKQGSKVQESTKGPDEAKIKALLERTGYTLDVTTGQRKYGGPPPDSVYSGVQPGIGTEVFVGKIPRDLYEDELVPLFEKAGPIWDLRLMMDPLSGQNRGYAFITFCGKEAAQEAVKLCDSYEIRPGKHLGVCISVANNRLFVGSIPKNKTKENILEEFSKVTEGLVDVILYHQPDDKKKNRGFCFLEYEDHKSAAQARRRLMSGKVKVWGNVVTVEWADPVEEPDPEVMAKVKVLFVRNLATTVTEEILEKSFSEFGKLERVKKLKDYAFVHFEDRGAAVKAMDEMNGKEIEGEEIEIVLAKPPDKKRKERQAARQASRSTAYEDYYYHPPPRMPPPIRGRGRGGGRGGYGYPPDYYGYEDYYDDYYGYDYHDYRGGYEDPYYGYDDGYAVRGRGGGRGGRGAPPPPRGRGAPPPRGRAGYSQRGAPLGPPRGSRGGRGGPAQQQRGRGSRGSRGNRGGNVGGKRKADGYNQPDSKRRQTNNQQNWGSQPIAQQPLQQGGDYSGNYGYNNDNQEFYQDTYGQQWK |  | three times longer neurites | bind to the 3′ untranslated region of β-actin mRNA | strong concentration of β-actin
